Laboratory results reported in paper PMC3833262 (2014).

Biological target: the molecule itself
Assay: multi-angle light scattering

B1: arrestin-1 (protein)
chain: MAACGKTNKSHVIFKKVSRDKSVTIYLGKRDYVDHVSQVEPVDGVVLVDPELVKGKKVYVTLTCAFRYGQEDIDVMGLTFRRDLYFSRVQVYPPVGAMSVLTQLQESLLKKLGDNTYPFLLTFPDYLPCSVMLQPAPQDVGKSCGVDFEVKAFASDITDPEEDKIPKKSSVRLLIRKVQHAPPEMGPQPSAEASWQFFMSDKPLNLSVSLSKEIYFHGEPIPVTVTVTNNTDKVVKKIKVSVEQIANVVLYSSDYYVKPVASEETQEKVQPNSTLTKTLVLVPLLANNRERRGIALDGKIKHEDTNLASSTIIKEGIDRTVMGILVSYHIKVKLTVSGFLGELTSSEVATEVPFRLMHPQPEDPAKESVQDENLVFEEFARQNLKDTGENTEGKKDEDAGQDE
Q: For B1, which Kd is on record?
A: 57.5 µM
